Each block holds one substance with its values, some of them ahead of it.
Experiments:
[1] = biological target: KDR/flk-1 receptor on 293/KDR or PAE/KDR cells (UniProt P35968); experiment: cell-based or functional assay
[2] = biological target: S-peptide fragment of bovine pancreatic ribonuclease A (bovine); experiment: cell-based or functional assay

Chain of Lip(Dox)-SP-FVEGF121 complex (P15692 other isoform, or with tags, fused parts or gaps): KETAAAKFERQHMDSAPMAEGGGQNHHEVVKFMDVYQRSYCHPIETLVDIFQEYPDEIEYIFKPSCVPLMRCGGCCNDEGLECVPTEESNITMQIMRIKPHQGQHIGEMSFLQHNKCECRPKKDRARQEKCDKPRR
Chain of Lip(Dox)-SP-FVEGF121 complex (P61823 47-150): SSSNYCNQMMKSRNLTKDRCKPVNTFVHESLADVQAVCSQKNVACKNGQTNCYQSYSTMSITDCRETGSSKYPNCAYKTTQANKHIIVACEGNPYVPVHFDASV
Chain of KDR/flk-1 receptor on 293/KDR or PAE/KDR cells (P35968 20-1356 limits assumed): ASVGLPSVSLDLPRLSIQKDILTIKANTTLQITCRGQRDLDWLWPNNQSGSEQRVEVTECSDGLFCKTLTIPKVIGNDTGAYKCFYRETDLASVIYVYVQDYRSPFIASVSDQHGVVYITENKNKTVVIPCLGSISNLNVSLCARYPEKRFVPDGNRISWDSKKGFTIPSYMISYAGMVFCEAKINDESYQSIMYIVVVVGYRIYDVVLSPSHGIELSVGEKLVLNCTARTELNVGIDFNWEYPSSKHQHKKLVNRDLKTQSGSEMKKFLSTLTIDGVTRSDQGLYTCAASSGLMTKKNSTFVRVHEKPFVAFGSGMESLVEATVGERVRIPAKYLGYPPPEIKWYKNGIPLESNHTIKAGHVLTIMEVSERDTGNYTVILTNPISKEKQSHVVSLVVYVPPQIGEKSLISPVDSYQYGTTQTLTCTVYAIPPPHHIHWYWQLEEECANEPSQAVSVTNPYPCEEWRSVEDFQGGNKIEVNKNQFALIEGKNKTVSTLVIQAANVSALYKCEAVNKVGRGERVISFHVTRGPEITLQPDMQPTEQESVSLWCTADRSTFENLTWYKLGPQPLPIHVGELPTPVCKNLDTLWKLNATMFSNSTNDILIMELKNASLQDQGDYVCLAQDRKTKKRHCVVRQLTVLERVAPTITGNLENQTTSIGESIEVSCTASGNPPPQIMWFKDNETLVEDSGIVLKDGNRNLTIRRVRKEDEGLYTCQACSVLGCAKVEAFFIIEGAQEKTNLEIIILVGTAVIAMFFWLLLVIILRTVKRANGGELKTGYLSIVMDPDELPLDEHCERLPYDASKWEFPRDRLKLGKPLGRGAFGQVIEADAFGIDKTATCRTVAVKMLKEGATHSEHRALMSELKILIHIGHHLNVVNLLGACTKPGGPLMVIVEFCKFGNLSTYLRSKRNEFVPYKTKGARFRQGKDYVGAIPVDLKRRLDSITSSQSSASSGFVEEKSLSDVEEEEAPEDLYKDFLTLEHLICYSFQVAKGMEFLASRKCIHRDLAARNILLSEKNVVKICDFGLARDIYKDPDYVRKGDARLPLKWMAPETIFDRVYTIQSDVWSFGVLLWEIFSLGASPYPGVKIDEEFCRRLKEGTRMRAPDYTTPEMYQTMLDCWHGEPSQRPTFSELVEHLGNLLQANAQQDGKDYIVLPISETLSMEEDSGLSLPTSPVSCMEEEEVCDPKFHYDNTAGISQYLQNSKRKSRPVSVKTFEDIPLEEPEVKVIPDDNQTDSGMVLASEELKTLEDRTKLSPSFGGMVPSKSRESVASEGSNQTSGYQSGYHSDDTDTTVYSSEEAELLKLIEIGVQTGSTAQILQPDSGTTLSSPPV
Chain of MBS-modified S-protein, 10-fold molar excess of sulfo-MBS (P61823 47-150): as the sequence (P61823 47-150) above
Chain of MBS-modified S-protein, 2-fold molar excess of sulfo-MBS (P61823 47-150): as above
Chain of S-protein fragment of bovine ribonuclease (Sigma) (P61823 47-150): as above
Chain of MBS-modified S-protein, 20-fold molar excess of sulfo-MBS (P61823 47-150): as above
Chain of MBS-modified S-protein, 40-fold molar excess of sulfo-MBS (P61823 47-150): as above

- IC50 of growth inhibition of 293/KDR cells [1]: 5 nM
Substance: Lip(Dox)-SP-FVEGF121 complex (from UniProt P15692 27-147; P61823 47-150)

- Ribonuclease Activity (%), S-tag Rapid Assay Kit; SulphoMBS molar excess: 2 [2]: 57%
Substance: MBS-modified S-protein, 2-fold molar excess of sulfo-MBS (from UniProt P61823 47-150)

- Ribonuclease Activity (%), S-tag Rapid Assay Kit; SulphoMBS molar excess: 10 [2]: 38%
Substance: MBS-modified S-protein, 10-fold molar excess of sulfo-MBS (from UniProt P61823 47-150)

- Ribonuclease Activity (%), S-tag Rapid Assay Kit; SulphoMBS molar excess: 20 [2]: 36%
Substance: MBS-modified S-protein, 20-fold molar excess of sulfo-MBS (from UniProt P61823 47-150)

- Ribonuclease Activity (%), S-tag Rapid Assay Kit; SulphoMBS molar excess: 40 [2]: 25%
Substance: MBS-modified S-protein, 40-fold molar excess of sulfo-MBS (from UniProt P61823 47-150)

- Ribonuclease Activity (%), S-tag Rapid Assay Kit; SulphoMBS molar excess: none [2]: 100%
Substance: S-protein fragment of bovine ribonuclease (Sigma) (from UniProt P61823 47-150)
